Laboratory results from the supplement of paper PMC10065799, “High-throughput profiling of sequence recognition by tyrosine kinases and SH2 domains using bacterial peptide display” (eLife, 2023).

target: Jak2 (UniProt O60674); test: phosphorylation enrichment, bacterial display (enrichment ratio); higher = better substrate or ligand; peptides without Tyr show the background
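Also: 11-residue human phosphosite peptides and single-mutation variants displayed on the E. coli surface, counted by deep sequencing, each peptide's frequency after selection divided by its frequency in the unselected input library; frequency after pTyr selection over input frequency; kinase dosed for 20-30% of maximal phosphorylation in three min.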

Jak2, sequence (O60674 whole entry, looked up): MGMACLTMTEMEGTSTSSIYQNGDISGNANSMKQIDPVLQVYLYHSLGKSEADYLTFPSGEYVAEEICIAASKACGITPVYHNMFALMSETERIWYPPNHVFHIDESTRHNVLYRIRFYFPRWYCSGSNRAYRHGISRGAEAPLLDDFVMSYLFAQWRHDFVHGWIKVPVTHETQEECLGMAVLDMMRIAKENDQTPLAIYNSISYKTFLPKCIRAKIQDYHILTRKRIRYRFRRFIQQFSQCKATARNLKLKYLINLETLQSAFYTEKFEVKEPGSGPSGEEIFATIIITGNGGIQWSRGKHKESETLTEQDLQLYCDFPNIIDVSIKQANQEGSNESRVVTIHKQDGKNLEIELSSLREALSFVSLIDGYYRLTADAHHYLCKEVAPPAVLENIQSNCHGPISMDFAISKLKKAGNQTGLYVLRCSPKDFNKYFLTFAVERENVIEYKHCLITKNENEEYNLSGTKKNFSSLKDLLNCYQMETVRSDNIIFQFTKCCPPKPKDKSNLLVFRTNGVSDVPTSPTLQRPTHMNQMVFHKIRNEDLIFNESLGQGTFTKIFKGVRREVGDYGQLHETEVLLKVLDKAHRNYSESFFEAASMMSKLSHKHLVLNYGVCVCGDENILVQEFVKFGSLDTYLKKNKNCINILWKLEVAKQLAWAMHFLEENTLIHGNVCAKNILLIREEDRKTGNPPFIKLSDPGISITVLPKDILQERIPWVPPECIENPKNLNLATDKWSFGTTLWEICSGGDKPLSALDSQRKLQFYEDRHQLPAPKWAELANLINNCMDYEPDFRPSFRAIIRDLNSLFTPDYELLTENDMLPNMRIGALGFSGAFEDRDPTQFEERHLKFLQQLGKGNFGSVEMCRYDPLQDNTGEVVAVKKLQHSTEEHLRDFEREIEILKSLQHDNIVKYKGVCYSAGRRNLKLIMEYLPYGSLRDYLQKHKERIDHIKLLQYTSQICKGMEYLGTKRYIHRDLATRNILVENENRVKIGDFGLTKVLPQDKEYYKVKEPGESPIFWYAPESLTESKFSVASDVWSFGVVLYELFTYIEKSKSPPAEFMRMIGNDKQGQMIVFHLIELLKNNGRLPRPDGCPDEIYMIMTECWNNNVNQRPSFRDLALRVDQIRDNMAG

| Sequence | phosphorylation enrichment |
| --- | --- |
| KNNDGNIDYAE [MCFD2_Y135_Y135N] | 0.776 |
| DPKFHYDNTAG [KDR_Y1214] | 0.698 |
| NHFKICNLCAE [PTEN_Y68_Y68C_YF] | 0.682 |
| PDGREYIYVDP [PDGFRA_Y572_H570R] | 1.88 |
| GMIQAYSSSQR [DES_Y5_S2I] | 0.442 |
| EGNERYEGFCV [GRIA3_Y451_YF] | 1.01 |
| MENFIYESMQY [CYP19A1_Y361_R365Q] | 0.894 |
| PSDLLYIPDIQ [ITGA2B_Y845_L847P] | 2 |
| ITKQEYDEAGP [ACTA1_Y364] | 0.881 |
| GYCSWYRGWAP [TIMP3_Y195] | 1.32 |
| KKFVPYYDLFM [IPO5_Y530_E525K] | 1.07 |
| IRRWVYPLTPE [EIF2B5_Y319] | 0.732 |
| REVVNYVQKRS [RMI1_Y450_N455S] | 0.468 |
| GAVGNYSRGLA [MGMT_Y158_G160R] | 0.38 |
| ATFRGYDSDNP [MMUT_Y146_H143Y_YF] | 0.811 |
| QYKGKYLAKHN [CASK_Y712_D710G] | 0.472 |
| FLGKGYSDGGC [MC4R_Y35_S30F] | 0.95 |

| Sequence | phosphorylation enrichment |
| --- | --- |
| RAKLFYQEVPA [METTL11B_Y76] | 0.547 |
| VREIRCQGGNR [VWF_Y1570_Y1570C] | 0.771 |
| KRFAFYRDSPR [FOXE3_Y108_E103K] | 0.482 |
| TAGFSYEKWEI [TEC_Y360] | 1 |
| EEEFEYMNRRR [ERBB3_Y1199_D1194E_YF] | 1.19 |
| DPLLTYWFPPK [LMNA_Y481_R482W] | 5.74 |
| IKGNMYYENSY [EGFR_Y112_R108K] | 0.591 |
| VLNHAYENLTR [SYNE2_Y3255_D3253H] | 0.507 |
| NLNGKYYKPRA [ANGPTL3_Y417_N418Y] | 0.617 |
| RSAGKDDVYLI [MECP2_Y120_Y120D] | 0.658 |
| SVVVPYEPPEV [TP53_Y220] | 1 |
| AEARMYGVLPW [PLP1_Y207_D203E] | 0.65 |
| ADKSAYLMGPN [MYH7_Y386_L390P] | 0.7 |
| VPHECYAKVFD [ALB_Y394_D389V] | 0.928 |
| VKANTYEKFWL [GATM_Y100_P105L_YF] | 0.821 |
| FSLPAYMDRRD [COX4I1_Y38] | 0.696 |

system: c-Src; test: as above

| Sequence | phosphorylation enrichment |
| --- | --- |
| KNNDGNIDYAE [MCFD2_Y135_Y135N] | 0.388 |
| DPKFHYDNTAG [KDR_Y1214] | 0.547 |
| NHFKICNLCAE [PTEN_Y68_Y68C_YF] | 0.486 |
| PDGREYIYVDP [PDGFRA_Y572_H570R] | 1.77 |
| GMIQAYSSSQR [DES_Y5_S2I] | 0.37 |
| EGNERYEGFCV [GRIA3_Y451_YF] | 0.479 |
| MENFIYESMQY [CYP19A1_Y361_R365Q] | 6.84 |
| PSDLLYIPDIQ [ITGA2B_Y845_L847P] | 0.808 |
| ITKQEYDEAGP [ACTA1_Y364] | 0.422 |
| GYCSWYRGWAP [TIMP3_Y195] | 1.33 |
| KKFVPYYDLFM [IPO5_Y530_E525K] | 2.32 |
| IRRWVYPLTPE [EIF2B5_Y319] | 0.437 |
| REVVNYVQKRS [RMI1_Y450_N455S] | 0.564 |
| GAVGNYSRGLA [MGMT_Y158_G160R] | 0.383 |
| ATFRGYDSDNP [MMUT_Y146_H143Y_YF] | 0.425 |
| QYKGKYLAKHN [CASK_Y712_D710G] | 0.519 |
| FLGKGYSDGGC [MC4R_Y35_S30F] | 0.592 |

| Sequence | phosphorylation enrichment |
| --- | --- |
| RAKLFYQEVPA [METTL11B_Y76] | 0.385 |
| VREIRCQGGNR [VWF_Y1570_Y1570C] | 0.5 |
| KRFAFYRDSPR [FOXE3_Y108_E103K] | 0.414 |
| TAGFSYEKWEI [TEC_Y360] | 0.463 |
| EEEFEYMNRRR [ERBB3_Y1199_D1194E_YF] | 0.608 |
| DPLLTYWFPPK [LMNA_Y481_R482W] | 6.1 |
| IKGNMYYENSY [EGFR_Y112_R108K] | 0.54 |
| VLNHAYENLTR [SYNE2_Y3255_D3253H] | 0.405 |
| NLNGKYYKPRA [ANGPTL3_Y417_N418Y] | 0.406 |
| RSAGKDDVYLI [MECP2_Y120_Y120D] | 1.25 |
| SVVVPYEPPEV [TP53_Y220] | 0.459 |
| AEARMYGVLPW [PLP1_Y207_D203E] | 4.81 |
| ADKSAYLMGPN [MYH7_Y386_L390P] | 0.631 |
| VPHECYAKVFD [ALB_Y394_D389V] | 0.561 |
| VKANTYEKFWL [GATM_Y100_P105L_YF] | 1.11 |
| FSLPAYMDRRD [COX4I1_Y38] | 0.424 |

target: Hck (UniProt P08631); test: as above
Sequence (P08631 whole entry, looked up): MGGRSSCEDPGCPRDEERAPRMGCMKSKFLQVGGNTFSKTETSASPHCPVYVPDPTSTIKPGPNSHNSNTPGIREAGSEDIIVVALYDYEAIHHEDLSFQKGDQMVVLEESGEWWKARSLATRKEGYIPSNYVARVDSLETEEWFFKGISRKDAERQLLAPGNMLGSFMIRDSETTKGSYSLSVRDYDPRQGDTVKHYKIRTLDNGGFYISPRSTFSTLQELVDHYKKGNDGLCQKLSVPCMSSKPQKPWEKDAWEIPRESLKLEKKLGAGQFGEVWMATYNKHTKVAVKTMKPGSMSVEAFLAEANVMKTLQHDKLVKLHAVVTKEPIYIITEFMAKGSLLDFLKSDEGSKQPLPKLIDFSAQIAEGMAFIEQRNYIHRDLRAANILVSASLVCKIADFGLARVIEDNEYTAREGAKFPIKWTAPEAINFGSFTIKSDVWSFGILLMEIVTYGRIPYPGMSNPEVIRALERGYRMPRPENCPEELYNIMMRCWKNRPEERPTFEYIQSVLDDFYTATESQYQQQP

| Sequence | phosphorylation enrichment |
| --- | --- |
| KNNDGNIDYAE [MCFD2_Y135_Y135N] | 0.524 |
| DPKFHYDNTAG [KDR_Y1214] | 0.496 |
| NHFKICNLCAE [PTEN_Y68_Y68C_YF] | 0.413 |
| PDGREYIYVDP [PDGFRA_Y572_H570R] | 1.28 |
| GMIQAYSSSQR [DES_Y5_S2I] | 0.412 |
| EGNERYEGFCV [GRIA3_Y451_YF] | 0.554 |
| MENFIYESMQY [CYP19A1_Y361_R365Q] | 7.07 |
| PSDLLYIPDIQ [ITGA2B_Y845_L847P] | 0.921 |
| ITKQEYDEAGP [ACTA1_Y364] | 0.51 |
| GYCSWYRGWAP [TIMP3_Y195] | 1.25 |
| KKFVPYYDLFM [IPO5_Y530_E525K] | 2.1 |
| IRRWVYPLTPE [EIF2B5_Y319] | 0.481 |
| REVVNYVQKRS [RMI1_Y450_N455S] | 0.484 |
| GAVGNYSRGLA [MGMT_Y158_G160R] | 0.395 |
| ATFRGYDSDNP [MMUT_Y146_H143Y_YF] | 0.528 |
| QYKGKYLAKHN [CASK_Y712_D710G] | 0.752 |
| FLGKGYSDGGC [MC4R_Y35_S30F] | 0.579 |

| Sequence | phosphorylation enrichment |
| --- | --- |
| RAKLFYQEVPA [METTL11B_Y76] | 1.67 |
| VREIRCQGGNR [VWF_Y1570_Y1570C] | 0.465 |
| KRFAFYRDSPR [FOXE3_Y108_E103K] | 0.387 |
| TAGFSYEKWEI [TEC_Y360] | 0.536 |
| EEEFEYMNRRR [ERBB3_Y1199_D1194E_YF] | 0.569 |
| DPLLTYWFPPK [LMNA_Y481_R482W] | 7.34 |
| IKGNMYYENSY [EGFR_Y112_R108K] | 0.462 |
| VLNHAYENLTR [SYNE2_Y3255_D3253H] | 0.383 |
| NLNGKYYKPRA [ANGPTL3_Y417_N418Y] | 0.312 |
| RSAGKDDVYLI [MECP2_Y120_Y120D] | 0.616 |
| SVVVPYEPPEV [TP53_Y220] | 0.55 |
| AEARMYGVLPW [PLP1_Y207_D203E] | 7.47 |
| ADKSAYLMGPN [MYH7_Y386_L390P] | 0.508 |
| VPHECYAKVFD [ALB_Y394_D389V] | 0.572 |
| VKANTYEKFWL [GATM_Y100_P105L_YF] | 0.684 |
| FSLPAYMDRRD [COX4I1_Y38] | 0.492 |

system: Fer (mouse); test: as above

| Sequence | phosphorylation enrichment |
| --- | --- |
| KNNDGNIDYAE [MCFD2_Y135_Y135N] | 0.453 |
| DPKFHYDNTAG [KDR_Y1214] | 0.401 |
| NHFKICNLCAE [PTEN_Y68_Y68C_YF] | 0.4 |
| PDGREYIYVDP [PDGFRA_Y572_H570R] | 0.983 |
| GMIQAYSSSQR [DES_Y5_S2I] | 0.319 |
| EGNERYEGFCV [GRIA3_Y451_YF] | 0.55 |
| MENFIYESMQY [CYP19A1_Y361_R365Q] | 13.3 |
| PSDLLYIPDIQ [ITGA2B_Y845_L847P] | 0.494 |
| ITKQEYDEAGP [ACTA1_Y364] | 0.494 |
| GYCSWYRGWAP [TIMP3_Y195] | 0.691 |
| KKFVPYYDLFM [IPO5_Y530_E525K] | 1.3 |
| IRRWVYPLTPE [EIF2B5_Y319] | 0.559 |
| REVVNYVQKRS [RMI1_Y450_N455S] | 0.525 |
| GAVGNYSRGLA [MGMT_Y158_G160R] | 0.358 |
| ATFRGYDSDNP [MMUT_Y146_H143Y_YF] | 0.553 |
| QYKGKYLAKHN [CASK_Y712_D710G] | 0.819 |
| FLGKGYSDGGC [MC4R_Y35_S30F] | 0.542 |

| Sequence | phosphorylation enrichment |
| --- | --- |
| RAKLFYQEVPA [METTL11B_Y76] | 1.64 |
| VREIRCQGGNR [VWF_Y1570_Y1570C] | 0.296 |
| KRFAFYRDSPR [FOXE3_Y108_E103K] | 0.421 |
| TAGFSYEKWEI [TEC_Y360] | 1.46 |
| EEEFEYMNRRR [ERBB3_Y1199_D1194E_YF] | 0.408 |
| DPLLTYWFPPK [LMNA_Y481_R482W] | 0.933 |
| IKGNMYYENSY [EGFR_Y112_R108K] | 0.609 |
| VLNHAYENLTR [SYNE2_Y3255_D3253H] | 0.417 |
| NLNGKYYKPRA [ANGPTL3_Y417_N418Y] | 0.354 |
| RSAGKDDVYLI [MECP2_Y120_Y120D] | 0.521 |
| SVVVPYEPPEV [TP53_Y220] | 0.556 |
| AEARMYGVLPW [PLP1_Y207_D203E] | 0.477 |
| ADKSAYLMGPN [MYH7_Y386_L390P] | 0.371 |
| VPHECYAKVFD [ALB_Y394_D389V] | 0.542 |
| VKANTYEKFWL [GATM_Y100_P105L_YF] | 2.9 |
| FSLPAYMDRRD [COX4I1_Y38] | 0.432 |
